Results on eight substances are retold here after article PMC7354924.

Assay [1] has as its target bone morphogenetic protein 2 (BMP2) (UniProt P12643). Nature of the assay: SPR; ProteOn XPR36, 25 °C; BMP/TGF-β ligands immobilized on GLC chips by amine coupling, RGM proteins as analytes; 10 mM Hepes pH 7.4, 500 mM NaCl, 3.4 mM EDTA, 0.005% Tween20; 1:1 Langmuir kinetic fit, Kd = koff/kon; apparent Kd. In general terms: Surface plasmon resonance follows binding to a sensor surface in real time, without labels.

The target in assay [2] is growth differentiation factor 5 (GDF5), wild type (UniProt P43026). Described as above.
Target sequence in this assay (P43026 382-501): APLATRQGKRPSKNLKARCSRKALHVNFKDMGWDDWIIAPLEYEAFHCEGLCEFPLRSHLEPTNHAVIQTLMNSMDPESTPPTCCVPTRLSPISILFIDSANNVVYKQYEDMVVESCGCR
Assay [3] shares this target. Nature of the assay: SPR; ProteOn XPR36; BMP2 (570 RU) or GDF5 (470 RU) amine-coupled to a GLC sensor chip; ActR2b ectodomain perfused at 6 µM to 187.5 nM, 100 µl/min; 0.005% (v/v) Tween 20 buffer; Kd from the dose-dependency of equilibrium binding, one-site model; apparent.
Target sequence in this assay (P43026 28-501): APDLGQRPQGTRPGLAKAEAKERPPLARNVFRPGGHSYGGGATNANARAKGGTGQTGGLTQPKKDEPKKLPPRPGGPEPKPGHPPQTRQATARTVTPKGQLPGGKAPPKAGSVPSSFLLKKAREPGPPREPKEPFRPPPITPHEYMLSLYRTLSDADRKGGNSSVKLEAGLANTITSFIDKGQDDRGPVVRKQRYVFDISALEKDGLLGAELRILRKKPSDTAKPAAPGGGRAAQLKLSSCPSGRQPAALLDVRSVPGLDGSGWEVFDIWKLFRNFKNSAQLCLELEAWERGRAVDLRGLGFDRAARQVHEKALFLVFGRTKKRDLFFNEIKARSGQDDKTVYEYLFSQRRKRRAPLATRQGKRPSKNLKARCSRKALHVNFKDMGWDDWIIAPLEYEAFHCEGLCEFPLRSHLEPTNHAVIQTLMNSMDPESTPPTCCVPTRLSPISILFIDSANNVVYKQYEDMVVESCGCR
Assay [4] shares this target. Nature of the assay: SPR; Biacore T200, 25 °C; GDF5 amine-coupled to a CM5 chip (830, 970 or 1370 RU); RGMBND variants or BSA as analytes; 0.5 M NaCl, 20 mM HEPES pH 7.4, 0.05% (v/v) Tween 20; Kd from the dose-dependency of equilibrium binding, 1:1 Langmuir isotherm.
Target sequence in this assay (P43026 28-501): as above
Assay [5] concerns the target bone morphogenetic protein 2 (BMP2) (UniProt P12643).
Assay [6] concerns the target growth differentiation factor 5 (GDF5), wild type (UniProt P43026).
Target sequence in this assay (P43026 382-501): as the sequence (P43026 382-501) above
Assay [7] shares this target. Nature of the assay: SPR; ProteOn XPR36; BMP2 (570 RU), GDF5 (470 RU), TGF-β2 (300 RU) or activin A (350 RU) amine-coupled to a GLC sensor chip; analyte perfused (RGMB 50 to 1.56 nM at 150 or 100 µl/min; BMPR1A 1000 to 31.25 nM at 100 µl/min); 20 mM HEPES pH 7.4, 500 mM NaCl, 3.4 mM EDTA, 0.005% (v/v) Tween 20; 25 °C; Langmuir 1:1 kinetic fit (parameters local for RGMB), Kd = koff/kon; apparent.
Target sequence in this assay (P43026 28-501): as the sequence (P43026 28-501) above

The target in assay [8] is bone morphogenetic protein 2 (BMP2) (UniProt P12643). Nature of the assay: SPR.
Assay [9] concerns the target growth differentiation factor 5 (GDF5), wild type (UniProt P43026). Nature of the assay: SPR; BMPR1A with BMP2, GDF5 and GDF5 variants; set-up not told for this pair in the main text (values in the discussion, SI Appendix Table S1); taken as the ProteOn set-up with immobilized ligands.
Target sequence in this assay (P43026 382-501): as the sequence (P43026 382-501) above

Sequence of bone morphogenetic protein 2 (BMP2) (P12643 283-396): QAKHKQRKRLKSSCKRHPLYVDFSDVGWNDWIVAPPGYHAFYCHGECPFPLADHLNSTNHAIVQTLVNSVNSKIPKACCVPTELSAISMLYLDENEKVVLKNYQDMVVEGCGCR
Sequence of BMPR1A ectodomain protein (residues Gln24 to Arg152) (P36894 24-152): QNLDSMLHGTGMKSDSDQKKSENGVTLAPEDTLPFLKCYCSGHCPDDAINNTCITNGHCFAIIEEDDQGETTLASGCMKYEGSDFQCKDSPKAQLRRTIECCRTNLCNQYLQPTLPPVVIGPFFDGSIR
Sequence of murine activin type-2 receptor ActR2b, soluble ectodomain (residues Gly20 to Glu127) (P27040 20-127): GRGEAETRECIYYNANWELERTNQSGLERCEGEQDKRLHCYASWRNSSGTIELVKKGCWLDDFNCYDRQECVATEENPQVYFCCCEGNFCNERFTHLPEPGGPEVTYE

With “soluble RGMB extracellular domain (RGMBECD) for the ProteOn SPR studies (from UniProt Q6NW40 46-413) (domain or fragment)”, the values for the Kd in [1] and in assay [2] were 4.2 nM and 2.7 nM, respectively.
As to “murine activin type-2 receptor ActR2b, soluble ectodomain (residues Gly20 to Glu127) (from UniProt P27040 20-127)”, the Kd in assay [3] amounted to 1300 nM.
RGMBND His106Arg (domain or fragment) displayed a Kd in [4] of over 200 µM.
The substance “extracellular domain of human RGMB (RGMBECD, Gln53–Ser411) (domain or fragment)” came in with a BMP2 (3 nM) BMP-responsive luciferase reporter in LLC-PK1 cells expressing full-length membrane-anchored RGMB in assay [5] of 3 fold.
“soluble RGMC extracellular domain (RGMCECD) for the ProteOn SPR studies (from UniProt Q6ZVN8 36-400) (domain or fragment)” registered a GDF5 (30 nM) BMP-responsive luciferase reporter in LLC-PK1 cells expressing full-length membrane-anchored RGMC in [6] of 2 fold.
“soluble RGMA extracellular domain (RGMAECD) for the ProteOn SPR studies (from UniProt Q96B86 48-424) (domain or fragment)” had a GDF5 (30 nM) BMP-responsive luciferase reporter in LLC-PK1 cells expressing full-length membrane-anchored RGMA in assay [6] of 2 fold.
As to “BMPR1A ectodomain protein (residues Gln24 to Arg152) (from UniProt P36894 24-152) (receptor)”, in [7], the off-rate (koff) stood at 0.0048 s⁻¹ and the kon came to 90000 M⁻¹ s⁻¹.
Regarding “BMPR1A extracellular domain (BMPR1AECD, Thr55–Val141) (receptor)”, the figures for the Kd in [8] and in [9] were 59 nM and 125 nM, respectively.

Usually koff stands for a measure of how fast the partners let go of each other. Usually kon stands for the second-order rate constant of association.
